Reference: the supplement of paper PMC10567573

B1: TRIM39 (parent)
chain: ERDFPCPVCRKTSRYRSLRPNRQL
B2: SMG5 (parent)
chain: FVSIAQSEQESLLQQAQAQFRMAQ

Variants of: B1
Assay: protein stability index of a GFP-peptide fusion (GPS, HEK-293T) (PSI 1-6); higher = more stable
Conditions: c terminus: a fixed tail appended
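Further: lentivirally expressed fusions sorted by FACS into six bins by GFP to DsRed ratio, PSI derived from sequencing read proportions per bin multiplied by bin number.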

Protein stability index: each site, then its substitutions
R2: W 2.18 | H 2.33 | D 2.1 | G 1.57 | N 1.86 | I 2.06 | T 1.91 | V 3.06 | A 2.13 | E 2.06 | Y 2.22 | Q 2.27 | K 2.02 | F 1.83 | C 2.01 | M 2.28 | S 1.9 | P 1.78 | L 1.63
E1: T 2.71 | D 2.4 | P 2.93 | S 2.25 | A 2.16 | I 2.19 | L 2.34 | Q 2.06 | H 2.03 | C 2.2 | R 2.71 | F 2.14 | K 1.77 | M 2.16 | G 1.83 | Y 1.66 | V 2.06 | W 2.4 | N 2.01
D3: M 2.56 | K 2.64 | Q 2.62 | C 2.08 | N 2.5 | H 1.78 | E 1.64 | L 1.96 | I 1.39 | F 2.93 | A 2.2 | P 2.06 | G 1.6

Variants of: B2
Assay: as above
Conditions: c terminus: a fixed tail appended

Protein stability index of substitutions, site by site:
E8: M 1.57 | N 1.92 | V 1.39 | F 3.04 | K 2.07 | G 1.86 | L 2.19 | T 1.84 | S 1.82 | R 1.42 | P 1.62 | Y 1.4
S11: P 2.6 | H 2.04 | A 2.4 | V 1.59 | E 2.56 | K 2 | F 1.56 | L 1.99 | C 2.56
A23: N 2.12 | D 2.21 | S 2.31 | G 2.46 | L 2.4 | R 2.26 | W 2.58 | K 2.12 | Y 2.16 | E 2.85 | C 2.1 | Q 2.29 | I 2.22
L13: V 2.68 | K 2.52 | C 2.88 | I 2.87 | N 2.74 | S 2.74 | M 2.66 | A 2.14 | Q 2.6 | P 3.08
Q17: F 1.85 | G 2.17 | S 2.48 | D 2.37 | P 3.35 | L 2.04 | C 1.76 | I 2.02 | N 2.33 | E 2.22 | Y 1.8 | M 2.13 | W 1.39
Q9: R 1.85 | C 3.07 | N 2.08 | T 2.9 | S 2.02 | E 2.25 | M 2.02 | F 2.32 | I 1.67 | W 1.67 | V 1.91 | A 1.56 | P 1.63 | Y 1.21
A16: R 2.53 | M 2.2 | C 1.36 | W 1.94 | Q 2.55 | N 2.37 | Y 1.86 | I 2.16 | S 1.94 | D 2.44
F1: A 4.58 | V 3.88 | Q 3.7 | M 2.97 | D 4.28 | E 4.16 | P 3.77 | S 3.41 | N 3.93 | W 2.65
F20: C 2.22 | K 2.59 | Q 2.5 | G 3.13 | W 1.82 | E 3.12 | S 2.57 | D 3.06 | A 2.44 | N 2.5 | V 2.37 | I 2.48 | L 2.08
A5: T 1.54 | Y 1.91 | Q 2.11 | I 1.78 | E 2.64 | M 2.58 | D 3.41 | N 1.86
S7: G 2.61 | T 2.36 | M 1.65 | F 2.22 | N 2.27 | C 1.63 | Y 1.57 | H 2.77 | R 2.79 | P 2 | L 1.77 | A 2.38 | W 3.26 | Q 2.5 | E 2.85
Q15: A 1.44 | C 1.85 | I 2.21 | V 2.34 | W 2.55 | L 1.61 | F 1.4 | Y 2.17 | E 2.32 | D 2.55 | M 2.12 | R 2.44
Q6: C 1.44 | R 2.33 | N 1.97 | T 1.84 | Y 2.32 | I 2.02 | G 1.85 | H 1.92 | A 1.9 | L 1.79 | F 2.15 | K 2.26
I4: Q 3.01 | K 2.39 | C 1.83 | E 2.91 | M 2.61 | S 1.87 | A 2.38 | T 2.78 | V 2.29 | G 2.42 | W 2.8 | D 3.09
E10: A 1.89 | Y 1.89 | I 1.73 | K 1.87 | R 2.2 | L 2.14 | M 1.43 | N 2.03 | D 2.19 | P 1.96 | F 2.2 | W 2.89
L12: K 2.4 | T 2.54 | R 2.4 | Q 2.66 | C 2.17 | A 2.69 | N 2.64 | M 2.44 | D 3.33 | H 2.72 | P 2.48 | E 2.48 | Y 1.61 | S 2.21 | V 2.31 | F 2.02
Q19: P 1.81 | Y 1.08 | V 2.13 | H 1.66 | I 2.33 | D 2.27 | F 1.35 | R 3.17 | L 2.47 | N 1.97 | E 2.82
Q14: Y 1.7 | W 2.52 | I 2.25 | F 1.84 | T 2.09 | M 2.18 | H 2.4 | R 2.21 | D 2.4
R21: V 2.56 | N 1.94 | T 2.32 | K 2.59 | Y 2.63 | D 2.48 | P 2.17 | Q 2.6 | M 1.89 | L 2.43 | H 2.4 | G 2.08
V2: F 2.22 | N 4.14 | D 3.77 | I 2.59 | R 3.45 | K 3.12 | A 3.24 | M 2.9 | H 2.43 | S 3.45 | W 2.98
M22: P 2.25 | F 2.2 | A 2.43 | V 2.61 | Y 2.13 | T 2.5 | I 2.14 | W 2.4 | E 2.57 | K 2.13
A18: F 1.74 | Q 2.04 | W 1.94 | C 1.98 | R 2.54 | E 2.48 | L 2.14 | M 1.7 | N 3.02 | V 1.52 | P 1.98 | S 2.74
S3: Y 1.58 | I 1.61 | E 2.61 | H 1.74 | L 1.87 | G 2.13 | T 2.25 | F 1.87 | W 2.89 | K 2.28 | M 1.6 | D 2.22 | V 1.77 | N 1.83 | R 2.31
Q24: D 2.12 | G 1.71 | L 2.4 | V 1.63 | F 2.48 | E 2.74 | K 2.65 | A 2.15 | M 1.88 | I 2.11 | S 2.65 | Y 2.1
